Data set [1] concerns BAX-induced MOMP, isolated mitochondria. Put plainly: In vitro cytochrome c release assay, isolated mitochondria (BCL-2 mutants). Conditions: for Cytochrome c release, Average: Bax+BimBH3 = 100, mean of n = 6. Type of data set: biochemical, mouse. The text has this: To verify this implication, we performed in vitro cytochrome c release assay using isolated mitochondria. […] Lane 3 (Fig. 2a) is a positive control for the cytochrome c release assays. […] (More experimental results in support of the observed BCL-2 activity are given in Supplementary Fig. 3.)
(§1) Fig. 2 In vitro assays for evaluating BCL-2 activity. a Cytochrome c release assay with various BCL-2 mutants at varying concentrations. All of the release amounts are normalized to the result caused by the BimBH3-induced BAX activation (lane 3). […] GUVs provide a MOM-like environment devoid of endogenous mitochondrial proteins.
A Dounce homogenizer was used with 20 strokes to homogenize mouse liver tissue (0.2 mg). The mitochondria fraction was separated using centrifugation according to the Mitochondria Isolation Kit (Thermo Scientific). Mitochondria Assay Buffer A (MAB A) (200 mM mannitol, 68 mM sucrose, 10 mM HEPES, 110 mM KCl, 1 mM EDTA, […], 0.1% BSA, protease inhibitor) was used to wash the mitochondria fraction, followed by centrifugation at 12,000 × g. The pellet was collected and resuspended using enough MAB B (i.e., MBA A without 0.1% BSA) and then quantified by bradford assay (Bio-Rad) to yield a final protein content of the mitochondrial fraction ~3 mg/mL. The final mitochondria fraction was placed on ice for further downstream processing or stored at −80 °C with additional 300 mM trehalose for future use[38]. […] The mixture was then incubated with BAX (0.1 μM) and 10 μL of the mitochondrial fraction ([…]) for 0.5 h at 37 °C. Final volume was adjusted to 30 μL. Following centrifugation at 12,000×g for 10 min, the supernatant was subjected to subsequent immunoblotting (IB). Quantification of IB was done using ImageJ software (version 1.49, NIH). The fraction of cytochrome c released (%) is calculated by (I–I0)/(Imax–I0)×100%, where Imax and I0 are the analyzed intensities of cytochrome c with and without activated BAX, respectively.
Samples were resolved by SDS–PAGE (15%) and electroblotted onto a 0.45 μm PVDF membrane (GE Healthcare). Primary antibodies used in this study included rabbit anti-BAX N20 (Santa Cruz Biotechnology), mouse anti-BCL-2(C2) (Santa Cruz Biotechnology) and mouse anti-cytochrome c antibodies (clone 7H8.2C12, Millipore). Detection was achieved using sheep anti-mouse IgG HRP (GE Healthcare) and donkey anti-rabbit IgG HRP (GE Healthcare) secondary antibodies. Proteins were visualized by 4CN Plus Chromogenic Substrate (PerkinElmer).

Data set [2] has as its system BCL-2 (EEE or WT):BimBH3, BAX-induced MOMP. Put plainly: Cytochrome c release assay at varying amount of ABT-199. Type of data set: biochemical, mouse. The method, then:
as §1
The cytochrome c release assays were performed at varying amounts of ABT-199.
A Dounce homogenizer was used with 20 strokes to homogenize mouse liver tissue (0.2 mg). The mitochondria fraction was separated using centrifugation according to the Mitochondria Isolation Kit (Thermo Scientific). Mitochondria Assay Buffer A (MAB A) (200 mM mannitol, 68 mM sucrose, 10 mM HEPES, 110 mM KCl, 1 mM EDTA, […], 0.1% BSA, protease inhibitor) was used to wash the mitochondria fraction, followed by centrifugation at 12,000 × g. The pellet was collected and resuspended using enough MAB B (i.e., MBA A without 0.1% BSA) and then quantified by bradford assay (Bio-Rad) to yield a final protein content of the mitochondrial fraction ~3 mg/mL. […] Quantification of IB was done using ImageJ software (version 1.49, NIH). The fraction of cytochrome c released (%) is calculated by (I–I0)/(Imax–I0)×100%, where Imax and I0 are the analyzed intensities of cytochrome c with and without activated BAX, respectively. […]

Another data set concerns BCL-2-dependent tumors. Conditions: cited from earlier work. The text has this: It is worth noting that the binding groove is also responsible for the engagement of an orally bioavailable small molecule ABT-199 (Venetoclax)[8],[13]. […] ABT-199 can displace the bound pro-apoptotic activator from the groove of BCL-2 efficiently and, consequently, cause the release of pro-apoptotic activators, promoting MOMP and apoptosis. This study will use ABT-199 to examine whether the BCL-2 mutants studied here have the same response as FL-BCL-2 to ABT-199.

The next data set relates to apoptotic cell death. Conditions: phosphomimetic BCL-2; cited from earlier work. From the text:
However, the three phosphorylation-related residues are in a 65-residue-long, highly flexible loop domain (denoted by FLD, herein; Fig. 1a) that is often removed for ...

Another data set relates to trypsin. Put plainly: Limited proteolysis by trypsin. Conditions: BCL-2 20 μM, trypsin 0.04-9.44 μM, 1 h, room temperature, SDS-PAGE. The method, then:
Fig. 3 Structural differences between WT and EEE. a An illustration of mutation sites prepared for spin-labeling ESR studies. b Distance distributions of various double-spin-labeled BCL-2 (WT or EEE) mutants are determined from the experimental DEER data. […] As highlighted, the displacements of α1 and α2 account for the major differences. d An illustration highlighting the positions of α2–α7 and the binding groove. Structures of WT and EEE are colored as in c. Helices α4–α7 change little between the WT and EEE. The displacement of α2 is critical to the change in the local environment of the binding groove. e Limited proteolysis of BCL-2 (20 μM) analyzed on SDS–PAGE. Trypsin concentrations were 0.04, 0.11, 0.34, 1.03, 3.11, 9.44 μM. Incubation time was 1 h at room temperature. It confirms that tertiary conformations of WT versus EEE are indeed different.
BCL-2 conformational change was assessed by limited proteolysis using trypsin (MERCK). In brief, 5 µg BCL-2 (WT or EEE) was digested at enzyme/substrate ratios ranging from 1:2 to 1:461 for 1 h at room temperature. Proteolysis was quenched by adding 1 mM PMSF, and then samples were confirmed by SDS–PAGE with Coomassie blue staining.

Setting [3] is: BAX 0.1 µM, BimBH3 2 µM, Fig. 2a.

Entries after “also recorded” stand apart in the source; their conditions may differ.

Consider “BAX: full-length mouse BAX; in FRET the single-cysteine variant BAX136C labeled with AL488 [reference compound]”, for which the “inhibition of BAX-induced MOMP / cytochrome c release (in words)” value in data set [1] (setting [3]) is “inactive”.
For the molecule `CC1(C)CCC(CN2CCN(c3ccc(C(=O)NS(=O)(=O)c4ccc(NCC5CCOCC5)c([N+](=O)[O-])c4)c(Oc4cnc5[nH]ccc5c4)c3)CC2)=C(c2ccc(Cl)cc2)C1` [ABT-199, Venetoclax, reference compound], the “effect on cytochrome c release (in words)” value in data set [2] (ABT-199 4–30 µM added to pre-incubated BCL-2 (EEE or WT), BimBH3 2 µM, BAX 0.1 µM, mitochondria, Fig. 2b) was “the greater the release of cytochrome c was detected”. Further, in data set [2] (BCL-2 EEE or WT), the “displacement of BimBH3 from BCL-2 (in words)” value is given as “can displace BimBH3 from BCL-2 (either EEE or WT)”. Moreover, the “inhibition of tumor growth (in words)” value with BCL-2-dependent tumors is recorded as “potently inhibits the growth of BCL-2-dependent tumors”.

B1: EEE (protein)
chain: MAHAGRTGYDNREIVMKYIHYKLSQRGYEWDAGDVGAAPPGAAPAPGIFSSQPGHTPHPAASRDPVAREEPLQTPAAPGAAAGPALEPVPPVVHLTLRQAGDDFSRRYRRDFAEMSSQLHLTPFTARGRFATVVEELFRDGVNWGRIVAFFEFGGVMCVESVNREMSPLVDNIALWMTEYLNRHLHTWIQDNGGWDAFVELYGPSMRPLFDFSWLSL
modifications: Pacific Blue (maleimide) on the native cysteine 158; left off: His6, C-terminal, state not stated
B1: the “protection against apoptotic cell death (in words)” value in the data set with apoptotic cell death is on record as “enhanced to protect cells against apoptotic cell death”. The “capacity to inhibit BAX-induced MOMP compared with S70E and WT (in words)” value in data set [1] (setting [3]) was “evidently greater than those of S70E (lanes 7–9) and WT (lanes 10–12); also recorded: the most potent in inhibiting the BAX-induced MOMP”. Moreover, in data set [1] (setting [3]), the “inhibition of BAX-induced MOMP / cytochrome c release (in words)” value is “largely inhibited”. The results for the “Cytochrome c release, Average” value in data set [1] (BAX+BimBH3 + 2uM BCL-2 protein), in data set [1] (BAX+BimBH3 + 4uM BCL-2 protein) and in data set [1] (BAX+BimBH3 + 6uM BCL-2 protein) were 66.3319, 14.0555 and 8.953, respectively. For the same molecule, in the data set with trypsin, the “susceptibility to trypsin proteolysis (in words)” value was “relatively resistant”.

(Values after paper PMC7665024, “Anti-apoptotic BCL-2 regulation by changes in dynamics of its long unstructured loop” (Communications Biology, 2020).)
